Source: publication PMC3149027, “Structural and functional basis for RNA cleavage by Ire1”

T1: Ire1KR32 (Saccharomyces cerevisiae? ("yeast"), UniProt P32361 641-1115)
T1 sequence: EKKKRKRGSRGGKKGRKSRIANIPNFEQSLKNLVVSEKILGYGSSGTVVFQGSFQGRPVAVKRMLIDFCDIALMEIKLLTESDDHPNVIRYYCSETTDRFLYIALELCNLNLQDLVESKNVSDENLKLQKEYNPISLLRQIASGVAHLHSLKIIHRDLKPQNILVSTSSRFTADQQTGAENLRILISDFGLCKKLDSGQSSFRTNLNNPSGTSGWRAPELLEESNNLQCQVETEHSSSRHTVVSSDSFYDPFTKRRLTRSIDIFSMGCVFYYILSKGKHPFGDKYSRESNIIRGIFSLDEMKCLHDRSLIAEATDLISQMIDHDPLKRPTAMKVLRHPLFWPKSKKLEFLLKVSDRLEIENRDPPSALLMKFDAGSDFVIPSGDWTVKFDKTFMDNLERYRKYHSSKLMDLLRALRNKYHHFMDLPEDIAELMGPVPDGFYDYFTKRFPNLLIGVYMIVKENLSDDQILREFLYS


Assays:
[1] = target: Ire1KR32 (wild type) (yeast)
Ire1KR32 = target: T1, Ire1KR32; assay: competition (inhibition of 32P-HP21 cleavage); apparent Ki; 2 mM Mg2+, 2 mM ADP, 3 uM Ire1KR32; 20 mM HEPES pH 7.4, 70 mM NaCl, 5% glycerol, 2 mM Mg(CH3COO)2, 2 mM ADP, 4 mM DTT, 30 C; conditions: protein: recombinant; tags: GST removed with Prescission protease; label: none; single strand

RNase activity (single-turnover cleavage of 32P-HP21) of 1.5 μM wild-type Ire1KR32 titrated with 0.1-15 μM Ire1KR32(H1061N); in trans activation, inhibition at excessive H1061N [1]	Molecule	Ki (Ire1KR32)
10 fold	Ire1KR32(H1061N) (domain or fragment)	–
–	CCGCAG (ssDNA, 2'-deoxy throughout) [dCdCdGdCdAdG (2'-deoxy-CCGCAG)]	200 ± 50 µM
